In patent US20200332009A1 (Innovent, published 2020):
Read-outs that look alike come from different tables or passages of the source.

T1: human LAG-3-His (human, UniProt P18627 23-450)
T1 construct: also called hLAG-3; human LAG-3 antigen (ArcoBiosystems); not shown: His tag
T1 sequence (looked up): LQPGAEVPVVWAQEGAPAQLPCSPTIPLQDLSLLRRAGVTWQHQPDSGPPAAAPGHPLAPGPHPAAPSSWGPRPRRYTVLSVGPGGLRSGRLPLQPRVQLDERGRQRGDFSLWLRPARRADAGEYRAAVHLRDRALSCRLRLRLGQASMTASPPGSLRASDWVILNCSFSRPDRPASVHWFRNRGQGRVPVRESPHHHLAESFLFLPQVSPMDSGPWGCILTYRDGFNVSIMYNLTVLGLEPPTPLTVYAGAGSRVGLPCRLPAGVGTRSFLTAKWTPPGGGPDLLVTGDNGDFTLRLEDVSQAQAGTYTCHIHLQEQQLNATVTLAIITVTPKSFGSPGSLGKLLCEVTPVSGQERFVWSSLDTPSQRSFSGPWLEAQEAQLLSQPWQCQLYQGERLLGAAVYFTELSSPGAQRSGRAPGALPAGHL


How the values were obtained:
[1] = molecular target: T2, human PD-L1 (purchased from Acrobiosystems) (human, UniProt Q9NZQ7 19-238); test: biological optical interferometry (ForteBio), antibody on sensor, antigen in solution
T2 construct: also called hPD-L1
Description: (§1) SD buffer, antibodies, and antigens (including human PD-L1, mouse PD-L1 and Macaca fascicularis PD-L1, all purchased from Acrobiosystems) each of 100 μL were added to 96-well black polystyrene half area microplates (Greiner, 675076). The sensors were arranged according to the positions of the samples. The instrument settings were as follows: the operation procedures were Baseline, Loading ˜1 nm, Baseline, Association, and Dissociation. The run time of each procedure was dependent on the rates of association and dissociation. The rotation speed was 400 rpm, and the temperature was 30° C. The KD values were analyzed by ForteBio analysis software.
The equilibrium dissociation constant (KD) binding of the humanized antibodies of different Fc subtypes of the invention to human PD-L1 was determined by ForteBio. The ForteBio affinity assay was shown in Example 2.

[2] = molecular target: PD-L1 on CHOK1-PDL1 cells (Promega PD-1/PD-L1 Blockade Bioassay) (UniProt Q9NZQ7 19-290, limits assumed); test: cell-based or functional assay
[3] = molecular target: T3, human PD-L1 overexpressed on CHO cells (CHO-PDL1) (human, UniProt Q9NZQ7 19-290); test: flow cytometry (FACS) on CHO-PDL1 cells
T3 construct: whole, on cells; also called CHO cells overexpressing human PD-L1

[4] = molecular target: T2, human PD-L1 (purchased from …); test: biological optical interferometry (ForteBio), antibody on sensor, antigen in solution; remark: listed apart in the source
Description: The equilibrium dissociation constant (KD) for binding of the antibody of the invention to human PD-L1 was determined by biological optical interferometry (ForteBio). A ForteBio affinity assay of prior art was performed (Estep, P., et al, High throughput solution based measurement of antibody-antigen affinity and epitope binning. MAbs, 2013.5(2):270-8).
as §1

[5] = molecular target: T3, human PD-L1 overexpressed on CHO cells …; test: flow cytometry (FACS) on CHO-PDL1 cells; the table gives no unit, the axis is Con(nM); the text gives this value to 4-79.2
Description: (§2) CHO-PDL1 cells were counted, diluted to 1×10⁶ cells/mL, and added to each well of a U-shaped bottom 96-well plates at 100 μL/well. The suspension was centrifuged at 400 g for 5 min, and the supernatant was discarded. […] The cells were resuspended to a volume of 100 μL/well, and then left on ice for 30 min. The suspension was centrifuged at 400 g for 5 min, and the supernatant was discarded. The cells were washed once with PBS. The mixture was centrifuged at 400 g for 5 min, and the supernatant was discarded. 100 μL of FITC-labeled secondary antibody for anti-mouse-Fab (Jackson Immuno Research) (diluted in PBS in 1:500) was added per well, and 100 μL of FITC-labeled secondary antibody for anti-human-Fab (Jackson Immuno Research) was added to the cells to which the positive control antibody was added. The cells were incubated for 30 min on ice in the dark. The cells were centrifuged at 400 g for 5 min with the supernatant being discarded, and were washed once with a PBS. The cells were resuspended with 100 μL of 1×PBS, and detected by FACS.

[6] = molecular target: T3, human PD-L1 overexpressed on CHO cells …; test: flow cytometry (FACS) on CHO-PDL1 cells; the table gives no unit, the axis is Con(nM); the text gives this value to 4-26.6
Description: as §2

human LAG-3-His = molecular target: T1, human LAG-3-His; test: biological optical interferometry (ForteBio), antibody on AHQ tip, human LAG-3-His 100 nM in solution, univalent, 1:1 model
Description: The equilibrium dissociation constant (KD) for binding of ADI31853 to human LAG-3 (hLAG-3) was measured by biological optical interferometry (ForteBio). A ForteBio affinity assay of prior art was performed (Estep, P., et al, High throughput solution based measurement of antibody-antigen affinity and epitope binning. MAbs, 2013.5(2):270-8). Briefly, the sensor was equilibrated offline in assay buffer for 30 minutes, and on-line detection was then conducted for 60 seconds to establish a baseline. The purified antibody obtained as described above was loaded on-line onto an AHQ sensor (ForteBio) for ForteBio affinity assay. The sensor with the loaded antibody was then exposed to 100 nM of a human LAG-3 antigen (ArcoBiosystems) for 5 minutes before transferring the sensor to the assay buffer for dissociation for 5 minutes for dissociation rate measurement. Kinetic analysis was performed using a 1:1 binding model.

Sequence of PD-L1 on CHOK1-PDL1 cells (Promega PD-1/PD-L1 Blockade Bioassay) (Q9NZQ7 19-290 limits assumed): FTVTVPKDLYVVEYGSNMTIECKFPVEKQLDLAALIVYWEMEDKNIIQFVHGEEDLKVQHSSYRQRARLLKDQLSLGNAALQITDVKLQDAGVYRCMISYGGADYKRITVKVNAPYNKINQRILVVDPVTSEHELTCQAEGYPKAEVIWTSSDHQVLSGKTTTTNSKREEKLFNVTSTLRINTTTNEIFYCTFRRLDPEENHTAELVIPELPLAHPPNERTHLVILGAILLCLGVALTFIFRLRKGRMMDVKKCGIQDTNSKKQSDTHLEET
T3 sequence (Q9NZQ7 19-290): as the sequence (Q9NZQ7 19-290 limits assumed) above
T2 sequence (Q9NZQ7 19-238 limits assumed): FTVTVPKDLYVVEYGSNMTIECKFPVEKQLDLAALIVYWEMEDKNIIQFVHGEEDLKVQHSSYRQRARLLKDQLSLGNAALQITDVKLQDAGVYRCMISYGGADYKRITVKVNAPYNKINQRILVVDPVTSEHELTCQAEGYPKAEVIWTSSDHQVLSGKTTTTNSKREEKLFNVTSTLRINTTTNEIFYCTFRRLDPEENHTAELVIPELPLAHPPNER

| Binder | Kd [1] [nM] | EC50 of the NFAT luciferase reporter signal (blockade of PD-1 on Jurkat-PD1 cells binding PD-L1 on CHOK1-PDL1 cells) [2] [nM] | EC50 [3] [nM] | Kd [4] [nM] | also measured |
| --- | --- | --- | --- | --- | --- |
| HZ3266-IgG1N297A (antibody, Humanized form of 3-266.1, human IgG1 with N297A, kappa) heavy: not shown light: GIVMTQSPDSLAVSLGERATINCKASQDVINAVAWYQQKPGQSPKLLIYSASNRYTGVPDRFSGSGSGTDFTLTISSLQAEDLAVYYCQQHYSPPLTFGGGTKVEIKRTVAAPSVFIFPPSDEQLKSGTASVVCLLNNFYPREAKVQWKVDNALQSGNSQESVTEQDSKDSTYSLSSTLTLSKADYEKHKVYACEVTHQGLSSPVTKSFNRGEC | 0.724 | 0.967 | 1.78 | – | – |
| HZ3266-IgG1 (antibody, Humanized form of 3-266.1, human IgG1, kappa) heavy: not shown light: GIVMTQSPDSLAVSLGERATINCKASQDVINAVAWYQQKPGQSPKLLIYSASNRYTGVPDRFSGSGSGTDFTLTISSLQAEDLAVYYCQQHYSPPLTFGGGTKVEIKRTVAAPSVFIFPPSDEQLKSGTASVVCLLNNFYPREAKVQWKVDNALQSGNSQESVTEQDSKDSTYSLSSTLTLSKADYEKHKVYACEVTHQGLSSPVTKSFNRGEC | 0.935 | 0.623 | 1.81 | – | – |
| 4-26.6 (antibody, human IgG1, kappa, N297A, V domains shown, Same remark on anti-mouse detection reagents as for 3-266.1; also called chimeric antibody 4-26.6) VH: QVQLKESGPSLVKPSQTLSLTCSVTGDSITSGYWNWIRKFPGNKLEYMGYISYSGSTYHNPSLKSRISITRDTSKNQFYLQLNSVTKEDTATYYCARGDLWPPWFAYWGQGTLVTVSA VL: not shown | – | – | 1.99 | 3.85 | EC50 [5]: 2.6 nM |
| 4-79.2 (antibody, human IgG1, kappa, N297A, V domains shown, Same remark on anti-mouse detection reagents as for 3-266.1; also called chimeric antibody 4-79.2) VH: EVQLQQSGPSLVKPSQTLSLTCSVTGDSITSGYWNWIREFPGNKLEYLGYISYTGSTYYNPSLKSRISITRDTSKNQYSLQLNSVTTEDTATYYCAKAPRWLSAMDYWGQGTSVTVSS VL: not shown | – | – | 2.6 | 7.56 | EC50 [6]: 1.99 nM |
| ADI-31853 (antibody, human IgG4 S228P, kappa, F234A L235A, V domains shown, also called anti-human-LAG-3 antibody) VH: QLQLQESGPGLVKPSETLSLTCTVSGGSIYSESYYWGWIRQPPGKGLEWIGSIVYSGYTYYNPSLKSRVTISVDTSKNQFSLKLSSVTAADTAVYYCARVRTWDAAFDIWGQGTMVTVSS VL: DIQMTQSPSSLSASVGDRVTITCQASQDISNYLNWYQQKPGKAPKLLIYDASNLETGVPSRFSGSGSGTDFTFTISSLQPEDIATYYCQQVLELPPWTFGGGTKVEIKR | – | – | – | – | Kd (human LAG-3-His): 0.622 nM; koff (human LAG-3-His): 0.0002 s⁻¹; kon (human LAG-3-His): 322000 M⁻¹ s⁻¹ |
| HZ4485-IgG1N297A (antibody, V domains shown, Humanized form of 4-48.5, human IgG1 with N297A, kappa) VH: QVQLVQSGAEVAKPGASVKVSCKASGYTFTTYTMHWVRQRPGQGLEWIGNINPNSDYAIYAQKFQGRATMTADKSTNTAYMELSSLRSEDSAVYYCAKQSFDYWGQGTLVTVSS VL: DIVLTQSPASLAVSPGQRATITCRASESVEFYGTSLLQWYQQKPGQPPKLLIYAASNVESGVPARFSGSGSGTDFTLTINPVEADDTANYYCHQGRKVPYTFGQGTKLEIKR | 3.17 | 0.683 | 1.56 | – | – |

The remaining binders from weak to strong by EC50 [3], led by results:

| Kd [1] [nM] | EC50 of the NFAT luciferase reporter signal (blockade of PD-1 on Jurkat-PD1 cells binding PD-L1 on CHOK1-PDL1 cells) [2] [nM] | EC50 [3] [nM] | Kd [4] [nM] | Binder | also measured |
| --- | --- | --- | --- | --- | --- |
| – | – | 2.14 | 0.98 | 3-266.1 (antibody, human IgG1, kappa, N297A, V domains shown, also called chimeric antibody 3-266.1) VH: EVQLQQSVAELVKPGASVKLSCTASGFNIEDTYIHWVKQRPEQGLEWIGRIDPANDDTKYDPKFQGKATITADTSSNTAYLQLSSLTPEDTAVYYCGRGLGRWFAYWGQGTLVTVSA VL: SIVMTQSHKFMSTSIGDRVNISCKASQDVINAVAWCQQKPGQSPKLLIYSASNRYTGVPDRFTGSGSGTDFTFTISSVQAEDLAVYYCQQHYSPPLTFGGGTKLELKR | – |
| – | – | 2 | 1.23 | 4-48.5 (antibody, human IgG1, kappa, N297A, V domains shown, Same remark on anti-mouse detection reagents as for 3-266.1; also called chimeric antibody 4-48.5) VH: EVQLQQSGAELARPGASVKMSCKASGYTFTTYTMHWVKQRPGQGLEWIGNINPNSDYAIYNQKFKDKATLTADKSSNTAYMQLSGLTSEDSAVYYCAKQSFDYWGQGTTLTVSS VL: DIVLTQSPASLAVSLGQRATISCRASESVEFYGTSLLQWYQQKPGQPPKLLIYAASNVESGVPARFSGSGSGTDFSLNIHPVEVDDVALYFCHQGRKVPYTFGGGTKLEIKR | – |
| 1.32 | – | 1.86 | – | HZ3266-IgG4PAAK (antibody, Humanized form of 3-266.1, mutated human IgG4 constant region, kappa; also called HZ3266-G4PAAK; HZ3266-IgG4PAK) heavy: not shown light: GIVMTQSPDSLAVSLGERATINCKASQDVINAVAWYQQKPGQSPKLLIYSASNRYTGVPDRFSGSGSGTDFTLTISSLQAEDLAVYYCQQHYSPPLTFGGGTKVEIKRTVAAPSVFIFPPSDEQLKSGTASVVCLLNNFYPREAKVQWKVDNALQSGNSQESVTEQDSKDSTYSLSSTLTLSKADYEKHKVYACEVTHQGLSSPVTKSFNRGEC | – |
